Patent US20220363769A1 (SORRISO PHARMACEUTICALS, published 2022)

B20: ID-A59U (VHH)
VHH: DVQLVESGGGLVQAGGSLRLSCESSISTFSSDAMGWFRQAPGKEREFLAAIGWSGAVTHYSDSVKGRFTISRDNAKNTVYLQMNSLRAEDTGRYYCAEDYDTDVWQYWGQGTQVTVSS
notes: V7R-2E9 with E1D, Q65K, K87R, S88A; S. cerevisiae-expressed equivalent of ID-A40U
B21: cynomolgus monkey IL-7Rα (receptor)
chain: ESGYAQNGDLEDAELDDYSFSCYSQLEVNGSQHSLTCAFEDPDVNTTNLEFEICGALVEVKCLSFRKLQEIYFIETKKFLLIGKSNICVKVGGKSLTCKKIDLTTIVKPEAPFDLSVIYREGANDFVVTFNTSHLQKKYVKVLMHDVAYRQEKDENKWMHVNLSSTKLTLLQRNLQPEAMYEIKVRSIPDHYFKGFWSEWSPSYYFRTPEINNSPGEMD
notes: also called cynomolgus IL-7Rα

How the values were obtained:
[1] = target: T1, recombinant human IL-7Rα-His6-Fc (human, UniProt P16871 21-239); assay: IL-7/IL-7Rα-His6-Fc ELISA; inhibition of IL-7 binding to IL-7R
T1 construct: also called hIL-7R; not shown: His6 tag; Fc (captured by anti-human IgG Fc)
T1 chain: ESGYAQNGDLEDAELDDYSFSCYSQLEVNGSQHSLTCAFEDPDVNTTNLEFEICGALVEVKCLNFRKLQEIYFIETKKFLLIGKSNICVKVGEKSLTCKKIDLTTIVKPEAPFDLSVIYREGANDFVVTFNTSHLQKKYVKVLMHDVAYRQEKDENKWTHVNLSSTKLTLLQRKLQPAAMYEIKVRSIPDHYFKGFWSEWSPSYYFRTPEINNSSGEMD

[2] = target: T1, recombinant human IL-7Rα-His6-Fc; assay: IL-7/IL-7R neutralising ELISA; inhibition of IL-7 binding to IL-7R
Experimental: A 7-point dilution series of the clones was prepared in 1% BSA (at 2× the assay concentration) starting at 300 nM and using a 3.2 dilution factor. […] Block buffer alone was also added to each plate as blank. […] TMB reaction was stopped after 30 minutes.
EC₅₀ values were generated in Graphpad prism using the ELISA signal blank corrected A450 data and ‘log(inhibitor) vs. response—Variable slope (four parameters)’ to fit curves and generate EC₅₀.

ID-A40U [3] = target: T2, ID-A40U; assay: competition ELISA: ID-A40U premixed with serially diluted soluble receptor, then added to plate-coated human IL-7Rα; bound ICVD detected [left panel]
T2 construct: V7R-2E9 with Q65K, K87R, S88A; produced in E. coli; also called A40U-F/H; not shown: Flag-His6 tag
Experimental: (§1) 96-well plates were coated with 0.5 μg/mL recombinant human IL-7Rα His₆-Fc +5 μg/mL BSA and then blocked. 0.5 nM of ICVD was mixed 1:1 with the test compounds of choice serially diluted in 1% BSA, then incubated for 30 minutes to allow binding before adding to the IL-7Rα coated plates. Following 2 hours incubation, bound ICVD was detected with 50 uL/well 1/20000 anti-FLAG-HRP Goat antibody (GeneTex, GTX21238), and the level of neutralisation of ICVD-IL-7Rα binding by the test compounds was determined.

ID-A40U [4] = target: T2, ID-A40U; assay: competition ELISA: ID-A40U premixed with serially diluted soluble receptor, then added to plate-coated human IL-7Rα; bound ICVD detected [right panel]
Experimental: as §1

ID-A40U [5] = target: T2, ID-A40U; assay: competition ELISA: ID-A40U premixed with serially diluted soluble IL-7R, then added to plate-coated human IL-7Rα-His6-Fc; bound ICVD detected
Experimental: as §1

cynomolgus monkey IL-7Rα = target: B21; assay: competition ELISA: A59U premixed with serially diluted soluble IL-7R, then added to plate-coated human IL-7Rα-His6-Fc; bound ICVD detected [left panel (cross-reactivity A59U]
Experimental: as §1

ID-A59U = target: B20; assay: as above
Experimental: as §1

ID-A62U = target: T3, ID-A62U; assay: competition ELISA: A62U premixed with serially diluted soluble IL-7R, then added to plate-coated human IL-7Rα-His6-Fc; bound ICVD detected [right panel (cross-reactivity A62U]
T3 construct: V7R-2E9 with E1D, R45L, Q65K, K87R, S88A; produced in S. cerevisiae
Experimental: as §1

B1: ID-A28U (VHH)
VHH: EVQLVESGGGLVQAGGSLRLSCESSISTFSSDAMGWFRQAPGKGLEWLAAIGWSGAVTHYSDSVKGRFTISRDNAKNTVYLQMNSLKAEDTGRYYCAEDYDTDVWQYWGQGTQVTVSS
notes: V7R-2E9 with E44G, R45L, F47W, Q65K, S88A
B1 was tested, and the EC50 [1] was 0.46 nM.

B2: ID-A29U (VHH)
VHH: EVQLVESGGGLVQAGGSLRLSCESSISTFSSDAMGWFRQAPGKGLEWLAAIGWSGAVTHYSDSVKGRFTISRDNAKNTVYLQMNSLRSEDTGRYYCAEDYDTDVWQYWGQGTQVTVSS
notes: V7R-2E9 with E44G, R45L, F47W, Q65K, K87R
In the case of B2, the EC50 [1] is reported as 0.476 nM.

B3: ID-A30U (VHH)
VHH: EVQLVESGGGLVQAGGSLRLSCESSISTFSSDAMGWFRQAPGKGREFLAAIGWSGAVTHYSDSVKGRFTISRDNAKNTVYLQMNSLRAEDTGRYYCAEDYDTDVWQYWGQGTQVTVSS
notes: V7R-2E9 with E44G, Q65K, K87R, S88A
Work on B3 yielded an EC50 [1] of 0.362 nM.

B4: ID-A31U (VHH)
VHH: EVQLVESGGGLVQAGGSLRLSCESSISTFSSDAMGWFRQAPGKGREFLAAIGWSGAVTHYSDSVKGRFTISRDNAKNTVYLQMNSLKSEDTGRYYCAEDYDTDVWQYWGQGTQVTVSS
notes: V7R-2E9 with E44G, Q65K
Work on B4 yielded an EC50 [1] of 0.336 nM.

B5: ID-A32U (VHH)
VHH: EVQLVESGGGLVQAGGSLRLSCESSISTFSSDAMGWFRQAPGKGREFLAAIGWSGAVTHYSDSVQGRFTISRDNAKNTVYLQMNSLRSEDTGRYYCAEDYDTDVWQYWGQGTQVTVSS
notes: V7R-2E9 with E44G, K87R
B5 showed an EC50 [1] of 0.367 nM.

B6: ID-A33U (VHH)
VHH: EVQLVESGGGLVQAGGSLRLSCESSISTFSSDAMGWFRQAPGKGREFLAAIGWSGAVTHYSDSVQGRFTISRDNAKNTVYLQMNSLKAEDTGRYYCAEDYDTDVWQYWGQGTQVTVSS
notes: V7R-2E9 with E44G, S88A
B6 was tested, and the EC50 [1] was 0.429 nM.

B7: ID-A34U (VHH)
VHH: EVQLVESGGGLVQAGGSLRLSCESSISTFSSDAMGWFRQAPGKEREFLAAIGWSGAVTHYSDSVKGRFTISRDNAKNTVYLQMNSLRSEDTGRYYCAEDYDTDVWQYWGQGTQVTVSS
notes: V7R-2E9 with Q65K, K87R
Work on B7 yielded an EC50 [1] of 0.376 nM.

B8: ID-A35U (VHH)
VHH: EVQLVESGGGLVQAGGSLRLSCESSISTFSSDAMGWFRQAPGKEREFLAAIGWSGAVTHYSDSVKGRFTISRDNAKNTVYLQMNSLKAEDTGRYYCAEDYDTDVWQYWGQGTQVTVSS
notes: V7R-2E9 with Q65K, S88A
B8 was tested, and the EC50 [1] was 0.849 nM.

B9: ID-A36U (VHH)
VHH: EVQLVESGGGLVQAGGSLRLSCESSISTFSSDAMGWFRQAPGKEREFLAAIGWSGAVTHYSDSVQGRFTISRDNAKNTVYLQMNSLRAEDTGRYYCAEDYDTDVWQYWGQGTQVTVSS
notes: V7R-2E9 with K87R, S88A
B9 gave an EC50 [1] of 0.797 nM.

B10: ID-A37U (VHH)
VHH: EVQLVESGGGLVQAGGSLRLSCESSISTFSSDAMGWFRQAPGKGREFLAAIGWSGAVTHYSDSVKGRFTISRDNAKNTVYLQMNSLRSEDTGRYYCAEDYDTDVWQYWGQGTQVTVSS
notes: V7R-2E9 with E44G, Q65K, K87R
With B10 the EC50 [1] was 0.845 nM.

B11: ID-A38U (VHH)
VHH: EVQLVESGGGLVQAGGSLRLSCESSISTFSSDAMGWFRQAPGKGREFLAAIGWSGAVTHYSDSVKGRFTISRDNAKNTVYLQMNSLKAEDTGRYYCAEDYDTDVWQYWGQGTQVTVSS
notes: V7R-2E9 with E44G, Q65K, S88A
In the case of B11, the EC50 [1] is reported as 0.789 nM.

B12: ID-A39U (VHH)
VHH: EVQLVESGGGLVQAGGSLRLSCESSISTFSSDAMGWFRQAPGKGREFLAAIGWSGAVTHYSDSVQGRFTISRDNAKNTVYLQMNSLRAEDTGRYYCAEDYDTDVWQYWGQGTQVTVSS
notes: V7R-2E9 with E44G, K87R, S88A
B12 was tested, and the EC50 [1] was 0.411 nM.

B13: V7R-2B6 (VHH)
VHH: EVQLVESGGGLVQAGGSLRLSCESSARTFSDDAMGWFRQAAGKEREFLAAINWSGAVTHYGDSVKGRFTISRDNAKNTVYLQMDSLKPEDTAVYYCAEDYDTDVWQHWGQGTQVTVSS
notes: llama ICVD, primary clone, expressed in E. coli TG1; not shown: C-terminal FLAG and 6xHis tags from vector pMEK222
With B13 the EC50 [2] was 0.264 nM.

B14: V7R-2E5 (VHH)
VHH: EVQLVESGGGLVQPGGSLRLSCESSISTFSSDAMGWFRQAPGKEREFLAAIGWSGAVTHYSDSVQGRFTISRDNAKNTVYLQMNSLKSEDTGRYYCAEDYDTDVWQYWGQGTQVTVSS
notes: as for B13
B14 gave an EC50 [2] of 0.64 nM.

B15: V7R-2F6 (VHH)
VHH: EVQLVESGGGLVQAGGSLRLSCESSIGTFSSDAMGWFRQAPGKEREFLAAIGWSGTVTHYSDSVQGRFTISRDNAKNTVYLQMNSLKSEDTGRYYCAEDYDTDVWQYWGQGTQVTVSS
notes: as for B13
With B15 the EC50 [2] was 0.361 nM.

B16: V7R-3B5 (VHH)
VHH: EVQLVESGGGLVQVGGSLRLSCESSISTFSSDAMGWFRQAPGKEREFLAAIGWSGAVTHYSDSVQGRFTISRDNAKNTVYLQMNSLKSEDTGRYYCAEDYDTDVWQYWGQGTQVTVSS
notes: as for B13
Work on B16 yielded an EC50 [2] of 0.222 nM.

B17: V7R-4F6 (VHH)
VHH: EVQLVESGGGLVQAGGSLRLSCESSISTFGSDAMGWFRQAPGKEREFVAATGWSGAVTHYSDSVKGRFTISRDNAKNTVYLQMNSLKSEDTGTYYCAEDYDTDVWQYWGQGTQVTVSS
notes: as for B13
In the case of B17, the EC50 [2] is reported as 0.259 nM.

B18: V7R-6C12 (VHH)
VHH: EVQLVESGGGLVQAGGSLRLSCESSISTFSSDAMGWFRQAPGKEREFLAAIGWSGAVTHYSDSVKGRFTISRDNAKNTVYLQMNSLKSEDTGRYYCAEDYVTDVWQYWGQGTQVTVSS
notes: llama ICVD, primary clone, expressed in E. coli TG1; also called IL-7R-6C12; not shown: C-terminal FLAG and 6xHis tags from vector pMEK222
In the case of B18, the EC50 [2] is reported as 0.416 nM.

B19: human IL-7Rα (receptor)
chain: ESGYAQNGDLEDAELDDYSFSCYSQLEVNGSQHSLTCAFEDPDVNTTNLEFEICGALVEVKCLNFRKLQEIYFIETKKFLLIGKSNICVKVGEKSLTCKKIDLTTIVKPEAPFDLSVIYREGANDFVVTFNTSHLQKKYVKVLMHDVAYRQEKDENKWTHVNLSSTKLTLLQRKLQPAAMYEIKVRSIPDHYFKGFWSEWSPSYYFRTPEINNSSGEMD
notes: native receptor on human lymphocytes, monocytes and UC biopsy tissue in the cell assays; also called CD127
In the case of B19, the “IC50 (read off the curve)” value (ID-A40U [3]) is reported as about 0.02 µg/mL, the “IC50 (read off the curve)” value (ID-A40U [4]) is reported as about 0.02 µg/mL and the “IC50 (read off the curve)” value (ID-A40U [5]) is reported as about 0.03 µg/mL.

B20: binds (cynomolgus monkey IL-7Rα).

For B21, the “IC50 (read off the curve)” value (ID-A40U [5]) was about 0.01 µg/mL, the “IC50 (read off the curve)” value (ID-A59U) was about 0.03 µg/mL and the “IC50 (read off the curve)” value (ID-A62U) was about 0.02 µg/mL.
